Reference: the supplement of paper PMC9732359
± gives the uncertainty stated by the source.

Test: protein stability index of a GFP-peptide fusion (yeast GPS) (PSI 1-4); higher = more stable; sorted into four equal gates, so the index is relative within each strain
Outline: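 Plasmids isolated from each sorting gate were PCR-amplified and Illumina-sequenced, and barcodes assigned the reads to strains. The gates, four of equal size, were set by GFP/Cherry fluorescence ratio on mid-log cultures in leucine-free medium. These cultures were yeast carrying a pooled library of tiled 17-residue yeast protein peptides fused downstream of GFP on a plasmid that also expresses Cherry. The protein stability index is the sum of every gate's read frequency times its gate number.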

## STNESNKSISDEITEDM [SSN2]
doa10∆
  protein stability index: 2.5 ± 0.05
pdr5∆
  protein stability index: 2.75 ± 0.057
san1∆
  protein stability index: 2.8 ± 0.05
ubr1∆
  protein stability index: 2.98 ± 0.045

## SKRSKIDIINKLILHAI [YML103C/NUP188]
doa10∆
  protein stability index: 1.23 ± 0.13
pdr5∆
  protein stability index: 1.23 ± 0.11
san1∆
  protein stability index: 1.04 ± 0.13
ubr1∆
  protein stability index: 1.1 ± 0.079

## RQCFQDNCCDFKVRTNL [MED1]
doa10∆
  protein stability index: 3.28 ± 0.053
pdr5∆
  protein stability index: 3.23 ± 0.063
san1∆
  protein stability index: 3.42 ± 0.04
ubr1∆
  protein stability index: 3.21 ± 0.038

## AYKFEEVSKDLIAVYYS [RPB8]
doa10∆
  protein stability index: 2.94 ± 0.071
pdr5∆
  protein stability index: 3.14 ± 0.067
san1∆
  protein stability index: 3.32 ± 0.045
ubr1∆
  protein stability index: 3.11 ± 0.055

## AAELQEKPLTPLKYTKL [SNF6]
doa10∆
  protein stability index: 2.94 ± 0.13
pdr5∆
  protein stability index: 3.02 ± 0.13
san1∆
  protein stability index: 2.39 ± 0.17
ubr1∆
  protein stability index: 2.78 ± 0.13

## NLCKIIEPFECVEISHI [RPN6]
doa10∆
  protein stability index: 2.27 ± 0.12
pdr5∆
  protein stability index: 2.09 ± 0.2
san1∆
  protein stability index: 1.97 ± 0.11

## GQSEASLLNLLNISPFT [RPP0]
doa10∆
  protein stability index: 2.59 ± 0.066
pdr5∆
  protein stability index: 2.1 ± 0.057
san1∆
  protein stability index: 2.29 ± 0.085
ubr1∆
  protein stability index: 2.66 ± 0.058

## ENEMIKPMNKGQHKNNT [SWP82]
doa10∆
  protein stability index: 3.36 ± 0.081
pdr5∆
  protein stability index: 3.19 ± 0.12
san1∆
  protein stability index: 3.33 ± 0.09
ubr1∆
  protein stability index: 3.26 ± 0.049

## QAQAQAQAAQAAQAQAQ [GAL11]
doa10∆
  protein stability index: 2.84 ± 0.092
pdr5∆
  protein stability index: 3.02 ± 0.14
san1∆
  protein stability index: 2.93 ± 0.066
ubr1∆
  protein stability index: 3.04 ± 0.11

## ITSIPKPLTENCKKKKK [RMP1]
doa10∆
  protein stability index: 2.84 ± 0.12
pdr5∆
  protein stability index: 2.75 ± 0.12
san1∆
  protein stability index: 2.05 ± 0.085
ubr1∆
  protein stability index: 2.99 ± 0.095

## VTPTKTEVIIRATRTQD [RPS3]
doa10∆
  protein stability index: 1.86 ± 0.049
pdr5∆
  protein stability index: 1.91 ± 0.044
san1∆
  protein stability index: 2.57 ± 0.069
ubr1∆
  protein stability index: 1.91 ± 0.033

## VAGAIRAGIIIAKLSVI [RPS2]
doa10∆
  protein stability index: 1.91 ± 0.1
pdr5∆
  protein stability index: 2.35 ± 0.098
san1∆
  protein stability index: 1.4 ± 0.13
ubr1∆
  protein stability index: 2.65 ± 0.083

## KPSNGKGSRKSSKAATP [SNF12]
doa10∆
  protein stability index: 3 ± 0.085
pdr5∆
  protein stability index: 3.02 ± 0.076
san1∆
  protein stability index: 3.24 ± 0.079
ubr1∆
  protein stability index: 3.239 ± 0.027

## LLREFKKLDDKPSLVDV [RPN6]
pdr5∆
  protein stability index: 3.44 ± 0.25
san1∆
  protein stability index: 3.27 ± 0.26

## AGIPIGLKRSQLDEFKN [SWP82]
doa10∆
  protein stability index: 2.56 ± 0.084
pdr5∆
  protein stability index: 2.22 ± 0.075
san1∆
  protein stability index: 2.21 ± 0.098
ubr1∆
  protein stability index: 1.38 ± 0.055

## PKRKRRLPVSEDTNTKP [YOR098C/NUP1]
doa10∆
  protein stability index: 3.16 ± 0.11
pdr5∆
  protein stability index: 2.82 ± 0.13
ubr1∆
  protein stability index: 2.97 ± 0.073

## EIEMKNKLEKLNSLLTY [SMC4]
doa10∆
  protein stability index: 1.71 ± 0.055
pdr5∆
  protein stability index: 1.87 ± 0.058
san1∆
  protein stability index: 1.85 ± 0.1
ubr1∆
  protein stability index: 1.61 ± 0.04

## DNEVQRTMLELITQLDG [RPT1]
doa10∆
  protein stability index: 2.55 ± 0.12
pdr5∆
  protein stability index: 3.21 ± 0.12
san1∆
  protein stability index: 2.79 ± 0.14
ubr1∆
  protein stability index: 2.67 ± 0.15

## VLRLATNKGPLAQIWLA [MCD1]
doa10∆
  protein stability index: 1.93 ± 0.11
pdr5∆
  protein stability index: 1.31 ± 0.052
san1∆
  protein stability index: 1.51 ± 0.15
ubr1∆
  protein stability index: 1.17 ± 0.055

## GLELSNFKSYRGVTKVG [SMC1]
doa10∆
  protein stability index: 3.04 ± 0.094
pdr5∆
  protein stability index: 3.09 ± 0.14
san1∆
  protein stability index: 2.55 ± 0.15
ubr1∆
  protein stability index: 2.45 ± 0.12

## GDYSQATVLSRKILKKT [RPN5]
doa10∆
  protein stability index: 2.68 ± 0.054
pdr5∆
  protein stability index: 2.87 ± 0.067
san1∆
  protein stability index: 2.75 ± 0.06
ubr1∆
  protein stability index: 2.95 ± 0.051

## DATFAGHSLGEYAALAS [FAS1]
doa10∆
  protein stability index: 2.73 ± 0.14
pdr5∆
  protein stability index: 3 ± 0.08
san1∆
  protein stability index: 2.83 ± 0.11
ubr1∆
  protein stability index: 2.49 ± 0.073

## MATNRADTLDPALLRPG [RPT3]
pdr5∆
  protein stability index: 3.31 ± 0.18
ubr1∆
  protein stability index: 2.79 ± 0.28

## ELAINLIRFDESITKAM [SMC2]
doa10∆
  protein stability index: 2.59 ± 0.062
pdr5∆
  protein stability index: 2.78 ± 0.08
san1∆
  protein stability index: 2.62 ± 0.09
ubr1∆
  protein stability index: 2.65 ± 0.071

## SDNISRKYEISFGKIYV [RPB2]
doa10∆
  protein stability index: 2.79 ± 0.059
pdr5∆
  protein stability index: 3.32 ± 0.073
san1∆
  protein stability index: 2.78 ± 0.068
ubr1∆
  protein stability index: 2.72 ± 0.072

## VPGMPAPIKKIIERYIK [PRP8]
doa10∆
  protein stability index: 3.37 ± 0.24
pdr5∆
  protein stability index: 3.23 ± 0.13
san1∆
  protein stability index: 2.95 ± 0.11
ubr1∆
  protein stability index: 3.16 ± 0.13

## KAKRAKTGSASTVKGSV [TAF14]
doa10∆
  protein stability index: 2.9 ± 0.11
pdr5∆
  protein stability index: 2.66 ± 0.24
san1∆
  protein stability index: 2.77 ± 0.16
ubr1∆
  protein stability index: 3.16 ± 0.083

## YMLIEEAASSNKSFIVD [ITC1]
doa10∆
  protein stability index: 2.96 ± 0.078
pdr5∆
  protein stability index: 2.91 ± 0.06
san1∆
  protein stability index: 2.78 ± 0.041
ubr1∆
  protein stability index: 2.9 ± 0.049

## TYQLCVRLRSNVIKTGI [RPN3]
doa10∆
  protein stability index: 3.25 ± 0.14
pdr5∆
  protein stability index: 3.35 ± 0.14
san1∆
  protein stability index: 3.27 ± 0.084

## AITADLGSSEAENLLQL [YGL172W/NUP49]
pdr5∆
  protein stability index: 1.31 ± 0.21

## QKTQELNAKYQSLGLDD [ISW2]
doa10∆
  protein stability index: 3.31 ± 0.061
pdr5∆
  protein stability index: 3.26 ± 0.048
san1∆
  protein stability index: 3.17 ± 0.042
ubr1∆
  protein stability index: 3.31 ± 0.052

## VIDIEIHVLEQDGGIMG [SKI6]
doa10∆
  protein stability index: 2.84 ± 0.076
pdr5∆
  protein stability index: 2.56 ± 0.095
san1∆
  protein stability index: 2.5 ± 0.11
ubr1∆
  protein stability index: 2.85 ± 0.062

## AFVKDMQVYLVPIERVA [RPC37]
doa10∆
  protein stability index: 1.18 ± 0.13
pdr5∆
  protein stability index: 1.39 ± 0.27
san1∆
  protein stability index: 1.39 ± 0.19
ubr1∆
  protein stability index: 1.27 ± 0.21

## LSKVAALSGNEGDASPF [RPB2]
doa10∆
  protein stability index: 1.91 ± 0.046
pdr5∆
  protein stability index: 2.79 ± 0.052
san1∆
  protein stability index: 2.15 ± 0.083
ubr1∆
  protein stability index: 2.59 ± 0.071

## STSYAIKKKDELERVAK [RPS5]
doa10∆
  protein stability index: 3.44 ± 0.084
pdr5∆
  protein stability index: 3.52 ± 0.11
san1∆
  protein stability index: 3.33 ± 0.061
ubr1∆
  protein stability index: 3.35 ± 0.081

## QGPIVADKNCAKLHRIS [PUP1]
doa10∆
  protein stability index: 3.41 ± 0.15
pdr5∆
  protein stability index: 2.94 ± 0.088
san1∆
  protein stability index: 2.79 ± 0.1
ubr1∆
  protein stability index: 2.64 ± 0.072

## IRIFRSELQRLSHENNV [RPT5]
doa10∆
  protein stability index: 2.67 ± 0.11
pdr5∆
  protein stability index: 3.21 ± 0.088
san1∆
  protein stability index: 2.96 ± 0.052
ubr1∆
  protein stability index: 2.9 ± 0.091

## SQKQTLIKKPLTVFYAI [SSN3]
doa10∆
  protein stability index: 2.1 ± 0.089
pdr5∆
  protein stability index: 2.13 ± 0.061
san1∆
  protein stability index: 2.12 ± 0.085
ubr1∆
  protein stability index: 2.01 ± 0.057

## GEKNFTSAHLKLKEMQK [SMC4]
doa10∆
  protein stability index: 3.01 ± 0.14
pdr5∆
  protein stability index: 3.35 ± 0.12
san1∆
  protein stability index: 3.27 ± 0.078
ubr1∆
  protein stability index: 3.14 ± 0.24

## SDIVLDKKVTLITSEMF [SIN4]
doa10∆
  protein stability index: 1.69 ± 0.085
pdr5∆
  protein stability index: 1.92 ± 0.13
san1∆
  protein stability index: 1.79 ± 0.11
ubr1∆
  protein stability index: 2.14 ± 0.073

## DVDPIELVVFLPALCKK [RPL8A]
doa10∆
  protein stability index: 2.78 ± 0.092
pdr5∆
  protein stability index: 2.8 ± 0.089
san1∆
  protein stability index: 2.64 ± 0.13
ubr1∆
  protein stability index: 3.03 ± 0.057

## YQSPTIFKIVQSRLMST [MED6]
doa10∆
  protein stability index: 1.71 ± 0.1
pdr5∆
  protein stability index: 1.59 ± 0.13
ubr1∆
  protein stability index: 1.96 ± 0.094

## SFATATCVTCHWNLPGE [SIR2]
doa10∆
  protein stability index: 1.64 ± 0.068
pdr5∆
  protein stability index: 1.97 ± 0.11
san1∆
  protein stability index: 1.9 ± 0.084
ubr1∆
  protein stability index: 1.92 ± 0.064

## IYQIHIPYAAKLLFQEL [RPB2]
doa10∆
  protein stability index: 2.64 ± 0.12
pdr5∆
  protein stability index: 1.98 ± 0.12
ubr1∆
  protein stability index: 2.88 ± 0.077

## ASITPYKLVNKNKENNT [RPN4]
doa10∆
  protein stability index: 1.08 ± 0.078
pdr5∆
  protein stability index: 2.28 ± 0.092
san1∆
  protein stability index: 2.48 ± 0.12
ubr1∆
  protein stability index: 2.11 ± 0.07

## EDMIRSVFDATSDPVMH [RPN1]
san1∆
  protein stability index: 3.15 ± 0.23

## ENFLKEVFQLRIFVKEI [GAL11]
doa10∆
  protein stability index: 1.81 ± 0.073
pdr5∆
  protein stability index: 1.69 ± 0.058
san1∆
  protein stability index: 1.95 ± 0.063
ubr1∆
  protein stability index: 1.52 ± 0.057

## TQLSYLISSSLSNLSKD [YCS4]
doa10∆
  protein stability index: 1.7 ± 0.041
pdr5∆
  protein stability index: 1.65 ± 0.041
san1∆
  protein stability index: 1.63 ± 0.074
ubr1∆
  protein stability index: 2.13 ± 0.045

## MNRRKIAMPKRRMAFKP [YLR335W/NUP2]
doa10∆
  protein stability index: 2.71 ± 0.076
pdr5∆
  protein stability index: 2.35 ± 0.14
san1∆
  protein stability index: 2.91 ± 0.071
ubr1∆
  protein stability index: 3.13 ± 0.13

## RIISGDQITKMKDRLVE [RPN9]
san1∆
  protein stability index: 3.34 ± 0.26
ubr1∆
  protein stability index: 2.69 ± 0.19

## QNRSLQEHNIQDSNVMP [SNF2]
doa10∆
  protein stability index: 3.19 ± 0.057
pdr5∆
  protein stability index: 3.08 ± 0.053
san1∆
  protein stability index: 2.92 ± 0.04
ubr1∆
  protein stability index: 3.31 ± 0.04

## LYEKLKQEIMMSDLFTF [ISW2]
doa10∆
  protein stability index: 2.69 ± 0.099
pdr5∆
  protein stability index: 2.34 ± 0.063
san1∆
  protein stability index: 2.14 ± 0.1
ubr1∆
  protein stability index: 2.64 ± 0.06

## KPTSPFIDSICKLFDKI [SRB8]
doa10∆
  protein stability index: 1.56 ± 0.04
pdr5∆
  protein stability index: 1.93 ± 0.035
san1∆
  protein stability index: 1.56 ± 0.055
ubr1∆
  protein stability index: 1.41 ± 0.034

## QIIRRVKEMEPKQSDEY [SIR3]
doa10∆
  protein stability index: 3.29 ± 0.12
pdr5∆
  protein stability index: 3.18 ± 0.11
san1∆
  protein stability index: 3.37 ± 0.069
ubr1∆
  protein stability index: 2.89 ± 0.15
